Tests used:
[1] = target: A4T4-His6 (module 4 multi-domain construct of NocB) (Nocardia uniformis subsp. tsuyamanensis ATCC 21806); test: pull-down
[2] = target: A1T1-His6 (module 1 multi-domain construct of the nocardicin NRPS) (Nocardia uniformis subsp. tsuyamanensis ATCC 21806); test: pull-down

Q: For “MbtH family protein NocI (untagged) (natural protein)”, which stoichiometry N [1] is on record?
A: 1

Q: And the stoichiometry N [2]?
A: 1
